Assay results taken from PMC7860981, “Mitochondrial Enzymes of the Urea Cycle Cluster at the Inner Mitochondrial Membrane” (Frontiers in Physiology, 2020).

Target: T1, carbamylphosphate synthetase 1 (CPS1), endogenous in mouse liver mitochondria (mouse (endogenous in mouse liver …, UniProt Q8C196 39-1500))
T1 construct: carbamylphosphate synthetase 1, mouse, endogenous in liver mitochondria; also called CPSI; source: endogenous, mouse liver mitochondria, lysate (PBS with 2% CHAPS)
T1 sequence (looked up): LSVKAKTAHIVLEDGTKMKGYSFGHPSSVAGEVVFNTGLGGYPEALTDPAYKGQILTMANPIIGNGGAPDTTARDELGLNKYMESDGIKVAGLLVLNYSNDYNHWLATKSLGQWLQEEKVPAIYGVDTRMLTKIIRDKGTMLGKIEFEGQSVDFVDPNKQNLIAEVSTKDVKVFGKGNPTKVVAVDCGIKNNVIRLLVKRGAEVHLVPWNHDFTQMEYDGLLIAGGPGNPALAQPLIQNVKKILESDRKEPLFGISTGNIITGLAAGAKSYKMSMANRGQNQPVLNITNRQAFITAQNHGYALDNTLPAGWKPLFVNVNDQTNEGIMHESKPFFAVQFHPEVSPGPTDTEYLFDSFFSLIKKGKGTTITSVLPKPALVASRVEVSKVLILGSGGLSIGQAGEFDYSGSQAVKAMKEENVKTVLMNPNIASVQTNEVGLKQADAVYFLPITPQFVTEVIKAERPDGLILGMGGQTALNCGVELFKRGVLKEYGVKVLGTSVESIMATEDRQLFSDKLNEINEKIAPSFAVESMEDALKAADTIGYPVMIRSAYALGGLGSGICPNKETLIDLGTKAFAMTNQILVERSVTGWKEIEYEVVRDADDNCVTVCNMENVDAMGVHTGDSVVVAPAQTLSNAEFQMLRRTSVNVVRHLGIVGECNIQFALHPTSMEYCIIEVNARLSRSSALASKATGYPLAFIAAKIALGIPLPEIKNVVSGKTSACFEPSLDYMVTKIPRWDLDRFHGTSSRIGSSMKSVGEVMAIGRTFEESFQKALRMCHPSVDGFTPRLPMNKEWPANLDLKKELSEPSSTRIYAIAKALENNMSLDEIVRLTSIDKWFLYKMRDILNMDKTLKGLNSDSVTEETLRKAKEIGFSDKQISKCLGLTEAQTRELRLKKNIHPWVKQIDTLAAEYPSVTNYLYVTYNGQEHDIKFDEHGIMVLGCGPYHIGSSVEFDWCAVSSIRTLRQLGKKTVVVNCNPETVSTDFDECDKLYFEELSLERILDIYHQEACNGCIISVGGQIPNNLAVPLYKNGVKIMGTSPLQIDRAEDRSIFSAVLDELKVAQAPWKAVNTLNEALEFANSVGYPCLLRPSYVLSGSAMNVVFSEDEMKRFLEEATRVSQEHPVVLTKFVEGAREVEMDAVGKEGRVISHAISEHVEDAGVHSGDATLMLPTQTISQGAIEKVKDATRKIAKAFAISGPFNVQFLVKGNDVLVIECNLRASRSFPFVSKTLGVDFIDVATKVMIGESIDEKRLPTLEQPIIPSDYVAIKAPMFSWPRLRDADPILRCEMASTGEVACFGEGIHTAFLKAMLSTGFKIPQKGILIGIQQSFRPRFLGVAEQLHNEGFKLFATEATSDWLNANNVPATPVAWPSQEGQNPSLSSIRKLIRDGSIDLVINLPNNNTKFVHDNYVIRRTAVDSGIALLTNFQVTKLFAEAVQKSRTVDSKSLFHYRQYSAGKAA
Assay: co-IP; competition experiment: purified recombinant mVS (10 to 30-fold molar excess over CPS1) mixed 1:1 (v/v) with mitochondrial lysate (2 mg/ml protein), added to magnetic beads cross-linked to anti-CPS1 antibodies; immunoblot for NAGS, densitometry of NAGS-M bands
Conditions: one partner purified

fold decrease of mNAGS co-immunoprecipitated with CPS1 in the presence of mVS: 5 fold
B1: recombinant mouse variable segment (mVS) of NAGS (domain or fragment, UniProt Q8R4H7 49-117, looked up)
chain: LSTARAHAEDAEGAKGRVQSPAVEEPSWTPLPTPLESPAPPAGRSLVQRDIQAFLNQCGASPGEARHWL
notes: Predicted molecular weight 9.675 kDa as printed
